In the test the target is human TRAPPII complex (TRAPPC1, TRAPPC2, TRAPPC2L, TRAPPC3, TRAPPC4, TRAPPC5, TRAPPC6A, TRAPPC9, TRAPPC10) (human) (UniProt Q9Y5R8).

With “Rab11 (from UniProt P62491 1-216) (natural protein)”, the catalytic efficiency (kcat/Km) of TRAPPII-catalysed release of Mant-GDP from 4 µM Rab-His6 in solution, TRAPPII 19–300 nM amounted to 2900 M⁻¹ s⁻¹.

Values taken from article PMC7719173.
